The numbers were not newly measured in publication PMC3929396, which cites them from elsewhere.

For this series, the target named is CCR5 (Homo sapiens) (UniProt P51681). As to the kind of experiment: SPR. Background: SPR reads the build-up and loss of mass on a sensor chip optically.
Sequence of UniProt P51681 (P51681 whole entry): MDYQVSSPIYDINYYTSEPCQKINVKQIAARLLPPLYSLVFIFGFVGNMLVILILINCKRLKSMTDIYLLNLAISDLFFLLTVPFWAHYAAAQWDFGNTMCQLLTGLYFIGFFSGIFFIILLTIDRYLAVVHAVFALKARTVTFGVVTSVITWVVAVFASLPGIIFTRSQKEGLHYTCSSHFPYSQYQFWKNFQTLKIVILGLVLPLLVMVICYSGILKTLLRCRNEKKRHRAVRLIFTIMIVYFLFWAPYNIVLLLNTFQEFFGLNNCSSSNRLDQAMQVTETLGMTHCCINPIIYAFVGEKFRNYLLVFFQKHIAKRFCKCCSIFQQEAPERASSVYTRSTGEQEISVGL

As usually defined, the Kd is the free concentration of one partner at which half of the binding sites on the other are occupied at equilibrium, for simple one-to-one binding. For LukE (from UniProt O54081), the Kd is 39.6 nM.
